Patent publication US20070032419A1 (ONCOSCIENCE, published 2007)

T1: tTF-GALNGRSHAG fusion polypeptide
T1 chain: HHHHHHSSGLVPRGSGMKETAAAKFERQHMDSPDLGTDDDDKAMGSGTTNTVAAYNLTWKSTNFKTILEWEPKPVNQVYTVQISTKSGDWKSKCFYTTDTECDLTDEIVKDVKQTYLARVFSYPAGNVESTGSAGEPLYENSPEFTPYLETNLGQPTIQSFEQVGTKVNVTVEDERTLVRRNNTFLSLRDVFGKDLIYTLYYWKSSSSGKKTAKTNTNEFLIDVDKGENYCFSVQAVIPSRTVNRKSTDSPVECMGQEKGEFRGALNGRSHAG

T2: tTF-GNGRAHA fusion polypeptide with N-terminal affinity tag
T2 chain: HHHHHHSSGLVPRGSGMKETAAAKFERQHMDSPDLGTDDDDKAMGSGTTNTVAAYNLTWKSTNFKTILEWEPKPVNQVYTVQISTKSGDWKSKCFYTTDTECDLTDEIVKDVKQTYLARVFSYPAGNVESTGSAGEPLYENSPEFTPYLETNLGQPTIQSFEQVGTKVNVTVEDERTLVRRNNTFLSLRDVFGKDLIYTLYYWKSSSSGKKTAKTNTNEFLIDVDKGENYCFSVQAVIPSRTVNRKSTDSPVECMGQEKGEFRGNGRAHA

T3: tTF-GCVLNGRMEC fusion polypeptide
T3 chain: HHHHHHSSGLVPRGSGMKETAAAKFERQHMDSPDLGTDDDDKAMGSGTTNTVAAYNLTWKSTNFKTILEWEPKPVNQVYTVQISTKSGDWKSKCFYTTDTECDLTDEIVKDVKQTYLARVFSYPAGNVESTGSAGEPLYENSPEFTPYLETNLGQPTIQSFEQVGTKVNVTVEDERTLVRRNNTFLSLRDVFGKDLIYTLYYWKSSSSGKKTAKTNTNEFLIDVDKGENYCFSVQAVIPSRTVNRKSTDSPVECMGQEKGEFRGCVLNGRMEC

T4: tTF-GCNGRCG fusion polypeptide
T4 chain: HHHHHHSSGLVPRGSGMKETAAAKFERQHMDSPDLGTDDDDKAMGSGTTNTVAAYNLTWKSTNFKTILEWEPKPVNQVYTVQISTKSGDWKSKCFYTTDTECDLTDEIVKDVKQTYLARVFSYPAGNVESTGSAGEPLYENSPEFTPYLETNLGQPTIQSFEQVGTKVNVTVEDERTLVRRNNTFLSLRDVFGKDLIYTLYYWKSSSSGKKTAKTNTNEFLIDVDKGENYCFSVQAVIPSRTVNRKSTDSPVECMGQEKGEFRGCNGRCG

T5: tTF-GCNGRCVSGCAGRC fusion polypeptide
T5 chain: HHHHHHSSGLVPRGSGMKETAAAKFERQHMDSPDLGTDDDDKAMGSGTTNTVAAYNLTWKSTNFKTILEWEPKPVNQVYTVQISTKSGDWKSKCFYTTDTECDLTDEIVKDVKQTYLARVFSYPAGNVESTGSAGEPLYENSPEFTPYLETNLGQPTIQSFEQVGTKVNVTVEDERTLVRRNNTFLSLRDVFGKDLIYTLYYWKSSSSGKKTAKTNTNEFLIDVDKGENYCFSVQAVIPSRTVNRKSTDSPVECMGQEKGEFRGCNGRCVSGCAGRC

T6: tTF-GRGDSP fusion polypeptide with N-terminal affinity tag
T6 chain: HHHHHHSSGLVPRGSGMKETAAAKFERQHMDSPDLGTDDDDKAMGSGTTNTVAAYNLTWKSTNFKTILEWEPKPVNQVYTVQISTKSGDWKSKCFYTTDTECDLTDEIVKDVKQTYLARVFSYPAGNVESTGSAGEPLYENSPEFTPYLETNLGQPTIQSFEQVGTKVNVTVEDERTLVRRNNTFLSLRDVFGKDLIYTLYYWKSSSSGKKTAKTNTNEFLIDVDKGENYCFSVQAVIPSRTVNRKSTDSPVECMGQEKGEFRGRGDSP

T7: truncated human tissue factor tTF1-218
T7 chain: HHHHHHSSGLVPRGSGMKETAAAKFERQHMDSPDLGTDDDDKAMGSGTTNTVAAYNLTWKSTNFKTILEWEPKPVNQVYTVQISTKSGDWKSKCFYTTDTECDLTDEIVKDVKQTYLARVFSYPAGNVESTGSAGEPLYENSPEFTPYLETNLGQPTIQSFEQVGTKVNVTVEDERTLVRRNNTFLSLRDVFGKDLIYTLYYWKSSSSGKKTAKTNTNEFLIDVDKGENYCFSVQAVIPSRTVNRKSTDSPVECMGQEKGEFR


Key:
[1] = target: T1, tTF-GALNGRSHAG fusion polypeptide
[2] = target: T2, tTF-GNGRAHA fusion polypeptide with …
[3] = target: T3, tTF-GCVLNGRMEC fusion polypeptide
[4] = target: T4, tTF-GCNGRCG fusion polypeptide
[5] = target: the fusion polypeptides (tTF fusion polypeptides)
[6] = target: T5, tTF-GCNGRCVSGCAGRC fusion polypeptide
[7] = target: T6, tTF-GRGDSP fusion polypeptide with …
[8] = target: T7, truncated human tissue factor tTF1-218
[9] = target: T8, integrin αvβ3 on cultivated human endothelial cells (human, UniProt P06756 31-1048; P05106 27-788); test: FACS, biotinylated protein (0.1 µM) on human endothelial cells in suspension, streptavidin-phycoerythrin detection; reference tTF
T8 construct: whole, on cells; The cells express αvβ3 naturally; also called αvβ3 on endothelial cells
T8 sequence (P06756 31-1048, chain 1 of 2): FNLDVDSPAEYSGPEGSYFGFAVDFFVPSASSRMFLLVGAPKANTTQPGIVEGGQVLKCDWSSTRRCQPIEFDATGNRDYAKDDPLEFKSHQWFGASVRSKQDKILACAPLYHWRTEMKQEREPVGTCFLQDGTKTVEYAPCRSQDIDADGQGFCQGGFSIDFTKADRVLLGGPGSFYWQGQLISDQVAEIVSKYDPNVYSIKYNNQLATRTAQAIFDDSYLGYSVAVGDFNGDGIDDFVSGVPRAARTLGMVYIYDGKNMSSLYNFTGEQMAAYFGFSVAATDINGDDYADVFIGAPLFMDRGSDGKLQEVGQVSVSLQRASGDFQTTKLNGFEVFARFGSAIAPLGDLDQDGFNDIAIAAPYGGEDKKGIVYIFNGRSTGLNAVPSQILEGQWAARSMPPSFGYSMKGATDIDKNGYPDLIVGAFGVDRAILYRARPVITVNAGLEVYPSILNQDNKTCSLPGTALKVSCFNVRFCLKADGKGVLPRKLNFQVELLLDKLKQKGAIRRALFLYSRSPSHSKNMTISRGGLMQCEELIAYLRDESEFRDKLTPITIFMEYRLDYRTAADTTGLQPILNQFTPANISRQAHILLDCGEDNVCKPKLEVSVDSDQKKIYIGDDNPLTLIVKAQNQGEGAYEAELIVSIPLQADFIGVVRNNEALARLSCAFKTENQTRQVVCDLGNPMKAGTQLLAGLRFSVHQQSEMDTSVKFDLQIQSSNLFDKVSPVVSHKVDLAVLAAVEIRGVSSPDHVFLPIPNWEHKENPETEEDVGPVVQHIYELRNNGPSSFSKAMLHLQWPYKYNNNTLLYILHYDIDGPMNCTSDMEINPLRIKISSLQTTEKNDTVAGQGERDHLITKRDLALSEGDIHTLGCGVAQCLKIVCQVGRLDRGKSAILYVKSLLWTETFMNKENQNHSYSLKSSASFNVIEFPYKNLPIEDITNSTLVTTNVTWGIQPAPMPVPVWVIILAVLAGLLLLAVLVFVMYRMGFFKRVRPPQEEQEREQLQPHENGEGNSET
T8 sequence (P05106 27-788, chain 2 of 2): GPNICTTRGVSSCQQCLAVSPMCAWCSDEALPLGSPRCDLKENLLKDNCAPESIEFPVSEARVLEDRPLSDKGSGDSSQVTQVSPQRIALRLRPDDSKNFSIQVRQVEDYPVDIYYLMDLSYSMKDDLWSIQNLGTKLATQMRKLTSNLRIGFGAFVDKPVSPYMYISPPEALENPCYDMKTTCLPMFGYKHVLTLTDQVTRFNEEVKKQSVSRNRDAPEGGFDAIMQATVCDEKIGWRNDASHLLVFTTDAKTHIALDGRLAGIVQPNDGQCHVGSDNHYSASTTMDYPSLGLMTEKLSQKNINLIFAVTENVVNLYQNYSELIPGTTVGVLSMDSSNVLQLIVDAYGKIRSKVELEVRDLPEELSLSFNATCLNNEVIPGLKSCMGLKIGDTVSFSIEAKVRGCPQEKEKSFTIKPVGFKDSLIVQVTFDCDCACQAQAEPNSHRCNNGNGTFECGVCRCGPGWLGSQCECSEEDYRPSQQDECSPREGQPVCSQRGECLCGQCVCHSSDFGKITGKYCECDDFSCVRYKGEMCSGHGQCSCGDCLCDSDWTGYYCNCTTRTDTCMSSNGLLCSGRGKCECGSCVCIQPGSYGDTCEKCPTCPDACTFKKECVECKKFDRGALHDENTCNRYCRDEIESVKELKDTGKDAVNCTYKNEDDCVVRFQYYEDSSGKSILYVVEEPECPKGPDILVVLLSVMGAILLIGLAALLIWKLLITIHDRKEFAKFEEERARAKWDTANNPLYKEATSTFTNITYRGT

Binder | proteolytic activation of FX via FVIIa in the presence of phospholipids (chromogenic FXa assay) [1] | proteolytic activation of FX via FVIIa in the presence of phospholipids (chromogenic FXa assay) [2] | proteolytic activation of FX via FVIIa in the presence of phospholipids (chromogenic FXa assay) [3] | proteolytic activation of FX via FVIIa in the presence of phospholipids (chromogenic FXa assay) [4] | Michaelis constant (Km) for activation of FX by FVIIa/tTF fusion protein [5] | proteolytic activation of FX via FVIIa in the presence of phospholipids (chromogenic FXa assay) [6] | proteolytic activation of FX via FVIIa in the presence of phospholipids (chromogenic FXa assay) [7] | proteolytic activation of FX via FVIIa in the presence of phospholipids (chromogenic FXa assay) [8] | fluorescence intensity, fold over tTF [9] [fold]
recombinant factor VIIa (Novo-Nordisk) (protein) ANAFLEELRPGSLERECKEEQCSFEEAREIFKDAERTKLFWISYSDGDQCASSPCQNGGSCKDQLQSYICFCLPAFEGRNCETHKDDQLICVNENGGCEQYCSDHTGTKRSCRCHEGYSLLADGVSCTPTVEYPCGKIPILEKRNASKPQGRIVGGKVCPKGECPWQVLLLVNGAQLCGGTLINTIWVVSAAHCFDKIKNWRNLIAVLGEHDLSEHDGDEQSRRVAQVIIPSTYVPGTTNHDIALLRLHQPVVLTDHVVPLCLPERTFSERTLAFVRFSLVSGWGQLLDRGATALELMVLNVPRLMTQDCLQQSRKVGDSPNITEYMFCAGYSDGSKDSCKGDSGGPHATHYRGTWYLTGIVSWGQGCATVGHFGVYTRVSQYIEWLQKLMRSEPRPGVLLRAPFP | both tTF and the tTF fusion polypeptides are functionally active under these conditions | both tTF and the tTF fusion polypeptides are functionally active under these conditions | both tTF and the tTF fusion polypeptides are functionally active under these conditions | both tTF and the tTF fusion polypeptides are functionally active under these conditions | in the range 0.12-1.2 nM | both tTF and the tTF fusion polypeptides are functionally active under these conditions | both tTF and the tTF fusion polypeptides are functionally active under these conditions | both tTF and the tTF fusion polypeptides are functionally active under these conditions | –
tTF-GRGDSP fusion polypeptide with N-terminal affinity tag (other, It was biotinylated for the FACS assay; also called tTF-RGD) HHHHHHSSGLVPRGSGMKETAAAKFERQHMDSPDLGTDDDDKAMGSGTTNTVAAYNLTWKSTNFKTILEWEPKPVNQVYTVQISTKSGDWKSKCFYTTDTECDLTDEIVKDVKQTYLARVFSYPAGNVESTGSAGEPLYENSPEFTPYLETNLGQPTIQSFEQVGTKVNVTVEDERTLVRRNNTFLSLRDVFGKDLIYTLYYWKSSSSGKKTAKTNTNEFLIDVDKGENYCFSVQAVIPSRTVNRKSTDSPVECMGQEKGEFRGRGDSP | – | – | – | – | – | – | – | – | 8
